Patent publication US20220305056A1 (Janssen / Centocor, published 2022)
Ends that are not written are not given here.

Key:
[1] = target: T1, H3-23/L1-39 scFv with (G4S)4 peptide linker; experiment: bio-layer interferometry
T1 construct: also called inert scFv

(G4S)4 peptide = target: T2, (G4S)4 peptide (biotinylated); experiment: bio-layer interferometry, biotinylated peptide on streptavidin sensor
T2 construct: Biotinylated peptide immobilised on streptavidin biosensors for BLI; also called WT (G4S)4 peptide linker; WT G4S linker
T2 peptide: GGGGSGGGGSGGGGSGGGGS
Description: (§1) All reactions were performed at 25° C. in 1× kinetics buffer (ForteBio; Fremont, Calif.). Data were collected with Octet Data Acquisition program (ForteBio) and analyzed using Octet Data Analysis program (ForteBio).

SEQ ID NO 47 = target: T3, SEQ ID NO 47 (also: biotinylated); experiment: bio-layer interferometry, truncated peptide panel
T3 construct: Truncation variant of the (G4S)4 linker; also called truncated G4S peptide
T3 peptide: GGGGSGGGGSGGGGSGGG
Description: as §1

SEQ ID NO 48 = target: T4, SEQ ID NO 48 (also: biotinylated); experiment: bio-layer interferometry, truncated peptide panel
T4 construct: Truncation variant of the (G4S)4 linker; also called truncated G4S peptide
T4 peptide: GGGGSGGGGSGGGGSGG
Description: as §1

SEQ ID NO 49 = target: T5, SEQ ID NO 49 (also: biotinylated); experiment: bio-layer interferometry, truncated peptide panel
T5 construct: Truncation variant of the (G4S)4 linker; also called truncated G4S peptide
T5 peptide: GGGGSGGGGSGGGGSG
Description: as §1

SEQ ID NO 46 = target: T6, SEQ ID NO 46 (also: biotinylated); experiment: bio-layer interferometry, truncated peptide panel
T6 construct: Truncation variant of the (G4S)4 linker; also called truncated G4S peptide
T6 peptide: GGGGSGGGGSGGGGSGGGG
Description: as §1

SEQ ID NO 50 = target: T7, SEQ ID NO 50 (not fully specified; also: biotinylated); experiment: bio-layer interferometry, truncated peptide panel
T7 construct: Truncation variant of the (G4S)4 linker; also called truncated G4S peptide; L6
T7 peptide: GGGGSGGGGSGGGGS
Description: as §1

[2] = target: T8, 10-mer peptide (SEQ ID NO:55) (also: biotinylated); experiment: bio-layer interferometry, truncated peptide panel
T8 construct: Truncation variant of the (G4S)4 linker; smallest linker detected by CEN-63-13; also called smallest linker
T8 peptide: GGGGSGGGGS
Description: as §1

SEQ ID NO 52 = target: T9, SEQ ID NO 52 (also: biotinylated); experiment: bio-layer interferometry, truncated peptide panel
T9 construct: Truncation variant of the (G4S)4 linker; also called truncated G4S peptide
T9 peptide: GGGGSGGGGSGGG
Description: as §1

SEQ ID NO 53 = target: T10, SEQ ID NO 53 (not fully specified; also: biotinylated); experiment: bio-layer interferometry, truncated peptide panel
T10 construct: Truncation variant of the (G4S)4 linker; also called truncated G4S peptide
T10 peptide: GGGGSGGGGSGG
Description: as §1

SEQ ID NO 51 = target: T11, SEQ ID NO 51 (also: biotinylated); experiment: bio-layer interferometry, truncated peptide panel
T11 construct: Truncation variant of the (G4S)4 linker; also called truncated G4S peptide
T11 peptide: GGGGSGGGGSGGGG
Description: as §1

[3] = target: T12, cell-surface scFv with a G4S linker (CAR-T construct on transfected HEK293T cells); experiment: flow cytometry on HEK293T cells transfected with CAR-T constructs, fluorescent anti-human Fc detection
T12 construct: also called cell surface antigen; linker containing scFv protein construct
Description: HEK293-T cells were cultured in standard DMEM with (Dulbecco's Modified Eagle's Medium Components comprising glucose, L-glutamine, NaHCO₃, and phenol red). Transfection of cells with mRNA for linker containing scFv protein constructs was carried out following manufacturer's protocol (MessengerMax, Invitrogen). 5 μg of IVT synthesized mRNA was transfected in HEK293-T cells at a density of 1×10⁶ cells/mL and incubated 24 hours prior to flow cytometry analysis. Cells were added to 96 well U bottom plates at a concentration of 100,000 cells/well. Plates were spun at 300 g for 3 minutes and supernatant was discarded. Sytox green (Invitrogen) Live/Dead stain was added to the cells and incubated for 10 minutes at room temperature in a dark chamber. The cells were washed twice with PBS, and the supernatant was discarded. A 12 point 1:3 serial dilution with a starting concentration of 100 nM of primary antibody was prepared. The dilution series was added to cells and incubated for 1 hour at 4° C. in the dark. Plates were spun at 300 g for 3 minutes, the supernatants discarded, and cells washed twice with FACS running buffer (Becton Dickinson (BD), Franklin Lakes, N.J.). Secondary antibody (Anti human Fc, Biolegend; San Diego, Calif.) was diluted in FACS buffer according to manufacturer's protocol. 50 μl of secondary antibody was added to the cells and incubated for 30 minutes at 4° C. in the dark. […]

[4] = target: T13, immobilized scFv containing a G4S linker; experiment: ELISA and flow cytometry (FIGS. 2 and 3)
T13 construct: Antigen coated on the ELISA plate at 0.1 ug/mL
Description: Plates were washed 3 times with PBS. […] Plates were washed 3 times with PBS. […] Optical density at 450 nm was measured on (SpectraMax M5, Molecular Devices; San Jose, Calif.). Data was analyzed in GraphPad Prism software (Graphpad).
HEK293-T cells were cultured in standard DMEM with (Dulbecco's Modified Eagle's Medium Components comprising glucose, L-glutamine, NaHCO₃, and phenol red). Transfection of cells with mRNA for linker containing scFv protein constructs was carried out following manufacturer's protocol (MessengerMax, Invitrogen). 5 μg of IVT synthesized mRNA was transfected in HEK293-T cells at a density of 1×10⁶ cells/mL and incubated 24 hours prior to flow cytometry analysis. Cells were added to 96 well U bottom plates at a concentration of 100,000 cells/well. Plates were spun at 300 g for 3 minutes and supernatant was discarded. Sytox green (Invitrogen) Live/Dead stain was added to the cells and incubated for 10 minutes at room temperature in a dark chamber. The cells were washed twice with PBS, and the supernatant was discarded. A 12 point 1:3 serial dilution with a starting concentration of 100 nM of primary antibody was prepared. The dilution series was added to cells and incubated for 1 hour at 4° C. in the dark. Plates were spun at 300 g for 3 minutes, the supernatants discarded, and cells washed twice with FACS running buffer (Becton Dickinson (BD), Franklin Lakes, N.J.). […]

[5] = target: T13, immobilized scFv containing a G4S linker; experiment: ELISA, scFv coated on the plate, anti-human Fc HRP detection
Description: MaxiSorb 96 plates (Nunc; Roskilde, Denmark) were coated with antigen at 0.1 μg/mL concentration and incubated overnight at 4° C. Plates were washed 3 times with PBS and blocked with PBS plus 5% milk powder for 1 hour at room temperature. Plates were washed 3 times with PBS. […] Plates were washed 3 times with PBS. […] Optical density at 450 nm was measured on (SpectraMax M5, Molecular Devices; San Jose, Calif.). Data was analyzed in GraphPad Prism software (Graphpad).

B1: CEN-63-13 mAb (antibody, human IgG1, V domains shown)
VH: QSVKESGGRLVTPGTPLTLTCTVSGFSLSSNAIDWVRQAPGKGLEWIGILGRSGSTYYASWAKGRFTISRTSSTTVDLKITSPTTEDTATYFCARHFYLWGPGTLVTVSS
VL: AQVLTQTASPVSAAVGGTVTINCQASQSVYSNYLSWYQQKPGQPPKLLMATTSTLEPGVPSRFKGSGSGTQFTLTISDLECDDAATYYCAGGYSVDIWVFGGGTEVVVKR
notes: also called CEN-63 C13; CEN-63 C13 anti-G4S antibody
Kd [1]: 8100 pM | Kd ((G4S)4 peptide): 3600 pM | fold decrease in binding affinity compared to WT G4S linker (SEQ ID NO 47): 2 fold | fold decrease in binding affinity compared to WT G4S linker (SEQ ID NO 48): 2 fold | fold decrease in binding affinity compared to WT G4S linker (SEQ ID NO 49): 2 fold | fold decrease in binding affinity compared to WT G4S linker (SEQ ID NO 46): 2 fold | fold decrease in binding affinity compared to WT G4S linker (SEQ ID NO 50): 2 fold | fold decrease in binding affinity compared to WT G4S linker [2]: 6 fold | fold decrease in binding affinity compared to WT G4S linker (SEQ ID NO 52): 2 fold | fold decrease in binding affinity compared to WT G4S linker (SEQ ID NO 53): 2 fold | fold decrease in binding affinity compared to WT G4S linker (SEQ ID NO 51): 2 fold | EC50 [3]: 780 pM | Kd [4]: 570 pM | EC50 [5]: 570 pM
